Measurements taken from PMC10470053, “Diverse p120RasGAP interactions with doubly phosphorylated partners EphB4, p190RhoGAP, and Dok1” (The Journal of Biological Chemistry, 2023).
“And” between values parts separate entries of the source, which are not always exact repeats. Equal entries are not always repeated. Square brackets hold non-standard residues; d marks the D form. pY = N[C@@H](Cc1ccc(OP(=O)(O)O)cc1)C(=O)O

T1: RasGAP^232(mut) (RasGAP^232 with R398E/K400E in the C-SH2 domain) (human, UniProt P20936 174-444, R398E | K400E | C236 | C261 | C372 | C402)
T1 construct: p120RasGAP (RASA1), human, UniProt P20936, residues 174-444, mutant of RasGAP^232 in the C-SH2 domain; also called C-SH2 mutant; source: E. coli Rosetta (DE3), purified (same protocol as the WT: Ni-NTA, TEV cleavage, anion exchange, SEC)
T1 sequence (looked up): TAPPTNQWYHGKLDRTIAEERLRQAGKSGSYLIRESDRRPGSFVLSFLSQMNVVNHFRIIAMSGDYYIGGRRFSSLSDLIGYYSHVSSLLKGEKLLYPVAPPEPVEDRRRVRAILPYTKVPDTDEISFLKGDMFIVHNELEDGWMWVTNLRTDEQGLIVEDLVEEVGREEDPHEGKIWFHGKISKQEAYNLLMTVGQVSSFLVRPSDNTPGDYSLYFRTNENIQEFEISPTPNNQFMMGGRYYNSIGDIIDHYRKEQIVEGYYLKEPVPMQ

T2: RasGAP^2(mut)32 (RasGAP^232 with R207A in the N-SH2 domain) (human, UniProt P20936 174-444, R207 to alanine | C236 | C261 | C372 | C402)
T2 construct: p120RasGAP (RASA1), human, UniProt P20936, residues 174-444, mutant of RasGAP^232 in the N-SH2 domain; also called N-SH2 mutant; source: E. coli Rosetta (DE3), purified (same protocol as the WT: Ni-NTA, TEV cleavage, anion exchange, SEC)
T2 sequence (looked up): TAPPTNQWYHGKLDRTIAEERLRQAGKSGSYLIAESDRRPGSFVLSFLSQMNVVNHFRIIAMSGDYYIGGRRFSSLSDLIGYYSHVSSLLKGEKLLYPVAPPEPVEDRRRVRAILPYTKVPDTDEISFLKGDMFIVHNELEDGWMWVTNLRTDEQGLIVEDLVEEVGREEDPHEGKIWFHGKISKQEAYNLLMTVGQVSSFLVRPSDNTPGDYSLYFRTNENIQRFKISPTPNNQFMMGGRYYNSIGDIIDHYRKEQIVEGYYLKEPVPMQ

T3: RasGAP^232 (p120RasGAP N-SH2, SH3 and C-SH2 domains, residues 174-444) (human, UniProt P20936 174-444, C236 | C261 | C372 | C402)
T3 construct: p120RasGAP (RASA1), human, UniProt P20936, residues 174-444 (N-SH2, SH3, C-SH2), with four cysteine to serine mutations; also called WT RasGAP^232; apo RasGAP^232; source: E. coli Rosetta (DE3), purified (Ni-NTA, TEV cleavage, anion exchange, SEC)
T3 sequence (looked up): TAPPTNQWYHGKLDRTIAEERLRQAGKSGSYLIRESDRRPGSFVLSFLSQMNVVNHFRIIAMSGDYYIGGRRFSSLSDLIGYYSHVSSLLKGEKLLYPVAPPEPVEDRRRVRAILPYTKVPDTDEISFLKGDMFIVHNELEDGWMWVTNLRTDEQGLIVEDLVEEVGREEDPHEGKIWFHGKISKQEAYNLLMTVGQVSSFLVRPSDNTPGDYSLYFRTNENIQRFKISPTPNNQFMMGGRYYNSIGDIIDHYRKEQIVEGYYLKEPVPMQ

T4: RasGAP^232 (p120RasGAP SH2-SH3-SH2 region, residues 174-444) (human, C236S (stands in the printed letters) | C261S (stands in the printed letters) | …)
T4 construct: p120RasGAP, human, UniProt P20936, residues 174-444 (N-SH2, SH3, C-SH2) with four cysteine to serine mutations; the methods say that the hexahistidine tag was cut off with TEV, so G-S of the printed stretch probably stay before T174; also called WT RasGAP^232; source: E. coli Rosetta (DE3), purified (Ni-NTA, TEV cleavage, anion exchange, SEC); not shown: His6, N-terminal, cleaved
T4 chain: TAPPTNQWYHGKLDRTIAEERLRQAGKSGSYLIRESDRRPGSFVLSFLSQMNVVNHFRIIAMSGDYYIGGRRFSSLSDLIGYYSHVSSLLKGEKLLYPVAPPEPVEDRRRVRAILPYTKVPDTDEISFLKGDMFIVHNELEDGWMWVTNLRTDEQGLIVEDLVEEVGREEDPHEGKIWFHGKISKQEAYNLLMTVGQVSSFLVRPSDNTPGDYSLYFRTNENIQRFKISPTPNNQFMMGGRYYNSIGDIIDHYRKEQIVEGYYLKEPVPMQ

T5: RasGAP^2(mut)32 (RasGAP^232 with R207A in the N-SH2 domain) (human, UniProt P20936 174-444, C236S | C261S | C372S | C402S | R207 to alanine)
T5 construct: p120RasGAP, human, UniProt P20936, residues 174-444; Made by site-directed mutagenesis of RasGAP^232, which holds the four cysteine to serine mutations; also called N-SH2 mutant; source: E. coli Rosetta (DE3), purified (same protocol as the WT counterpart); not shown: His6, N-terminal, cleaved
T5 sequence (looked up): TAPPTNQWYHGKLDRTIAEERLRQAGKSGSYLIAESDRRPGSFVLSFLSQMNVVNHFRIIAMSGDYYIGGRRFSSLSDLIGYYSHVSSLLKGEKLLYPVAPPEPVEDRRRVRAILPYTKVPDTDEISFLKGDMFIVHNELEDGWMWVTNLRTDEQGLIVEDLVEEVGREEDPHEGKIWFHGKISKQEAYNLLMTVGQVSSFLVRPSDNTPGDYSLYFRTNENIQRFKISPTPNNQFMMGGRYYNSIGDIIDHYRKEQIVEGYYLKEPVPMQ

T6: RasGAP^232(mut) (RasGAP^232 with R398E/K400E in the C-SH2 domain) (human, UniProt P20936 174-444, C236S | C261S | C372S | C402S | R398E | K400E)
T6 construct: p120RasGAP, human, UniProt P20936, residues 174-444; Made by site-directed mutagenesis of RasGAP^232, which holds the four cysteine to serine mutations; also called C-SH2 mutant; source: E. coli Rosetta (DE3), purified (same protocol as the WT counterpart); not shown: His6, N-terminal, cleaved
T6 sequence (looked up): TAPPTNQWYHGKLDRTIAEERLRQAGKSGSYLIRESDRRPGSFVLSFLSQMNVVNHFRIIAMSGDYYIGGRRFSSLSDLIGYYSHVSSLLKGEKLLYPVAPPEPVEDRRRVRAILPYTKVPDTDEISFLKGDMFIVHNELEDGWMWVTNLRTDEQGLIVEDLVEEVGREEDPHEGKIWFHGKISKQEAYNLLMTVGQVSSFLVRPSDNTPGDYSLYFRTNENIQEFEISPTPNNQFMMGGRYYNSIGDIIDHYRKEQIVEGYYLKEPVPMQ


What was measured:
Conditions in all cases: both partners purified
[1] = molecular target: T1, RasGAP^232(mut) (RasGAP^232 with …); experiment: ITC; protein in the 190 ul sample cell, titrated 20 times with 2.5 ul peptide from the syringe; 20 mM Tris pH 8, 250 mM NaCl; Nano ITC (TA Instruments); independent binding model
[2] = molecular target: T2, RasGAP^2(mut)32 (RasGAP^232 with R207A …); experiment: as above
[3] = molecular target: T3, RasGAP^232 (p120RasGAP N-SH2, SH3 and …); experiment: as above
[4] = molecular target: T4, RasGAP^232 (p120RasGAP SH2-SH3-SH2 …); experiment: ITC; RasGAP^232 protein (WT or mutant) in the 190 µl sample cell, peptide in the syringe, 20 injections of 2.5 µl; 20 mM Tris pH 8, 250 mM NaCl; Nano ITC (TA Instruments); blank (constant) and independent models; values of single trials, averages and stdev
[5] = molecular target: T5, RasGAP^2(mut)32 (RasGAP^232 with R207A …); experiment: as above
[6] = molecular target: T6, RasGAP^232(mut) (RasGAP^232 with …); experiment: as above

Row | Kd [1] [nM] | dH [1] [kJ/mol] | stoichiometry N [1] | Kd [2] [µM] | dH [2] [kJ/mol] | stoichiometry N [2] | Kd [3] [nM] | dH [3] [kJ/mol] | stoichiometry N [3] | Ka [4] | Kd [4] | stoichiometry N [4] | Ka [5] | Kd [5] | stoichiometry N [5] | Ka [6] | Kd [6] | stoichiometry N [6] | Binder
1 | 1000 ± 300 | -25 ± 1 | 0.75 ± 0.02 | 40 ± 20 | -33 ± 6 | 0.9 ± 0.2 | 2000 ± 700 | -24 ± 3 | 1 ± 0.1 |  |  |  |  |  |  |  |  |  | Ac-GTKV[pY]IDPFT[pY]EDPNEA-NH2 (SMILES CC[C@H](C)[C@H](NC(=O)[C@H](Cc1ccc(OP(=O)(O)O)cc1)NC(=O)[C@@H](NC(=O)[C@H](CCCCN)NC(=O)[C@@H](NC(=O)CNC(C)=O)[C@@H](C)O)C(C)C)C(=O)N[C@@H](CC(=O)O)C(=O)N1CCC[C@H]1C(=O)N[C@@H](Cc1ccccc1)C(=O)N[C@H](C(=O)N[C@@H](Cc1ccc(OP(=O)(O)O)cc1)C(=O)N[C@@H](CCC(=O)O)C(=O)N[C@@H](CC(=O)O)C(=O)N1CCC[C@H]1C(=O)N[C@@H](CC(N)=O)C(=O)N[C@@H](CCC(=O)O)C(=O)N[C@@H](C)C(N)=O)[C@@H](C)O, EphB4 juxtamembrane region, UniProt P54760, residues 586-602; also called pYpY EphB4; pYpYEphB4; source: synthetic peptide, bought: GenScript) [doubly phosphorylated EphB4 peptide (residues 586-602, pY590 and pY596)]
2 |  |  |  |  |  |  |  |  |  | 6.3e+07 M⁻¹ and 2.1e+07 M⁻¹ and 4.3e+07 M⁻¹ and 4e+07 M⁻¹ | 16 nM and 47 nM and 23 nM | 0.9 and 0.8 and 0.7 |  |  |  |  |  |  | Ac-SPPAL[pY]AEPLDSLRIAPCPSQDSL[pY]SDPLDST-NH2 (SMILES CC[C@H](C)[C@H](NC(=O)[C@H](CCCNC(=N)N)NC(=O)[C@H](CC(C)C)NC(=O)[C@H](CO)NC(=O)[C@H](CC(=O)O)NC(=O)[C@H](CC(C)C)NC(=O)[C@@H]1CCCN1C(=O)[C@H](CCC(=O)O)NC(=O)[C@H](C)NC(=O)[C@H](Cc1ccc(OP(=O)(O)O)cc1)NC(=O)[C@H](CC(C)C)NC(=O)[C@H](C)NC(=O)[C@@H]1CCCN1C(=O)[C@@H]1CCCN1C(=O)[C@H](CO)NC(C)=O)C(=O)N[C@@H](C)C(=O)N1CCC[C@H]1C(=O)N[C@@H](CS)C(=O)N1CCC[C@H]1C(=O)N[C@@H](CO)C(=O)N[C@@H](CCC(N)=O)C(=O)N[C@@H](CC(=O)O)C(=O)N[C@@H](CO)C(=O)N[C@@H](CC(C)C)C(=O)N[C@@H](Cc1ccc(OP(=O)(O)O)cc1)C(=O)N[C@@H](CO)C(=O)N[C@@H](CC(=O)O)C(=O)N1CCC[C@H]1C(=O)N[C@@H](CC(C)C)C(=O)N[C@@H](CC(=O)O)C(=O)N[C@@H](CO)C(=O)N[C@H](C(N)=O)[C@@H](C)O, Dok1, UniProt Q99704, residues 291-322; also called pYpY Dok1; pYpYDok1; source: synthetic peptide, bought: GenScript) [doubly phosphorylated Dok1 peptide (residues 291-322)]
3 |  |  |  |  |  |  |  |  |  |  | 1300 nM and 1500 nM and 2400 nM and 2700 nM | 0.9 and 1 and 1.1 | 40000 M⁻¹ and 30000 M⁻¹ and 20000 M⁻¹ | 25 µM and 32 µM and 60 µM and 38 µM | 0.7 and 1 and 0.9 and 1.2 | 900000 M⁻¹ and 700000 M⁻¹ and 1e+06 M⁻¹ | 1100 nM and 1500 nM and 1000 nM and 800 nM | 0.8 and 0.7 | Ac-GTKV[pY]IDPFT[pY]EDPNEA-NH2 (SMILES CC[C@H](C)[C@H](NC(=O)[C@H](Cc1ccc(OP(=O)(O)O)cc1)NC(=O)[C@@H](NC(=O)[C@H](CCCCN)NC(=O)[C@@H](NC(=O)CNC(C)=O)[C@@H](C)O)C(C)C)C(=O)N[C@@H](CC(=O)O)C(=O)N1CCC[C@H]1C(=O)N[C@@H](Cc1ccccc1)C(=O)N[C@H](C(=O)N[C@@H](Cc1ccc(OP(=O)(O)O)cc1)C(=O)N[C@@H](CCC(=O)O)C(=O)N[C@@H](CC(=O)O)C(=O)N1CCC[C@H]1C(=O)N[C@@H](CC(N)=O)C(=O)N[C@@H](CCC(=O)O)C(=O)N[C@@H](C)C(N)=O)[C@@H](C)O, EphB4, UniProt P54760, juxtamembrane residues 586-602; also called pYpY EphB4; pYpYEphB4; source: synthetic peptide, bought: GenScript) [doubly phosphorylated EphB4 peptide (residues 586-602)]
